Measurements: article PMC9482650, “Quantitative fragmentomics allow affinity mapping of interactomes” (Nature Communications, 2022)

T1: APBA2_1, Q99767
T1 sequence (Q99767 563-664, limits assumed, looked up): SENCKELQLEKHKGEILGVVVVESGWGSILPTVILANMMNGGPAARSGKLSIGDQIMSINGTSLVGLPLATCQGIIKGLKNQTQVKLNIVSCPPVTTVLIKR

T2: ARHGEF11, O15085
T2 sequence (O15085 42-136, limits assumed, looked up): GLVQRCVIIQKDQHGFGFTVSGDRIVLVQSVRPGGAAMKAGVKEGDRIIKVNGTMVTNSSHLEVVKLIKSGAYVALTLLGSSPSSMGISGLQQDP

T3: DFNB31_1, Q9P202
T3 sequence (Q9P202 135-233, limits assumed, looked up): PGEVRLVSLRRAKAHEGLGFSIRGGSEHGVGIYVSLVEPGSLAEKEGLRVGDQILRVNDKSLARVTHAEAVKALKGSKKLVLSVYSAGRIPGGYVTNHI

T4: DFNB31_3, Q9P202
T4 sequence (Q9P202 811-907, limits assumed, looked up): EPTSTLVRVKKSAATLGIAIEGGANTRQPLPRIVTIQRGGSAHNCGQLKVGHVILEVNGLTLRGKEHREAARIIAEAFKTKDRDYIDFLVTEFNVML

T5: DLG3_1, Q92796
T5 sequence (Q92796 125-227, limits assumed, looked up): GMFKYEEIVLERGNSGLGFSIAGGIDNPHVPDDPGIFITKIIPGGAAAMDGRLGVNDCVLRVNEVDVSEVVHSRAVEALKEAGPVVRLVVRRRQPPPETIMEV

T6: LIN7C, Q9NUP9
T6 sequence (Q9NUP9 88-185, limits assumed, looked up): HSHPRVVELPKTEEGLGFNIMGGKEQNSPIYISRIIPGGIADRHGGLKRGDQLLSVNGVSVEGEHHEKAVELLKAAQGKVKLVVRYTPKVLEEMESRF

T7: LRRC7, Q96NW7
T7 sequence (Q96NW7 1440-1537, limits assumed, looked up): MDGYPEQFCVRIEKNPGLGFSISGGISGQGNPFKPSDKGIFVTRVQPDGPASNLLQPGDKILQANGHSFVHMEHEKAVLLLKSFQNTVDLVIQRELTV

T8: MPDZ_12, O75970
T8 sequence (O75970 1857-1958, limits assumed, looked up): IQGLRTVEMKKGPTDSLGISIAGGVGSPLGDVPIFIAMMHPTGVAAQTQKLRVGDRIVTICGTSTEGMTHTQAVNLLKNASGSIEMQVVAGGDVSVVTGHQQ

T9: NHERF3_4, Q5T2W1
T9 sequence (Q5T2W1 373-468, limits assumed, looked up): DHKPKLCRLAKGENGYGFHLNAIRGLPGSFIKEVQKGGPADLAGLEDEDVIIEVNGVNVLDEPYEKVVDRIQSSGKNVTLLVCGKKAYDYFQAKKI

T10: PDZRN3_1, Q9UPQ7
T10 sequence (Q9UPQ7 244-349, limits assumed, looked up): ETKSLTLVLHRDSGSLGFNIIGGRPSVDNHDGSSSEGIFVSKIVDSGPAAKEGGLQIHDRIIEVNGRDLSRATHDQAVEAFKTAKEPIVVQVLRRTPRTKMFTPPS

T11: PTPN13_1, Q12923
T11 sequence (Q12923 1088-1188, limits assumed, looked up): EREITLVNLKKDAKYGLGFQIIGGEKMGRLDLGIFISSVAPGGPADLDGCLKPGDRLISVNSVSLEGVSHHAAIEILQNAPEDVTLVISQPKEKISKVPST

T12: TIAM2, Q8IVF5
T12 sequence (Q8IVF5 885-986, limits assumed, looked up): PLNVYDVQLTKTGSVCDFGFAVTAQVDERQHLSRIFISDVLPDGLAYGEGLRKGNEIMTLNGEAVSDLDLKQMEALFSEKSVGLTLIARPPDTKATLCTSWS


Assays:
Assay in all cases: holdup assay
Set-up in all cases: key: below the threshold = too weak to quantify, mostly under pKd 3.1 to 4
Conditions in all cases: plain residues with an end cap or a label only (N-terminal biotin on a linker: ado-ado)
AHNAK1, Q09666 = molecular target: AHNAK1, Q09666
Chain of AHNAK1, Q09666 (Q09666 4-100): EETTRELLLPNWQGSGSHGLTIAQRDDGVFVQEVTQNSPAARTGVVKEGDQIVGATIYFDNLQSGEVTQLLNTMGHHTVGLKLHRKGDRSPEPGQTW

APBA2_1, Q99767 = molecular target: T1, APBA2_1, Q99767
ARHGEF11, O15085 = molecular target: T2, ARHGEF11, O15085
DFNB31_1, Q9P202 = molecular target: T3, DFNB31_1, Q9P202
DFNB31_3, Q9P202 = molecular target: T4, DFNB31_3, Q9P202
DLG1_2, Q12959 = molecular target: DLG1_2, Q12959
Chain of DLG1_2, Q12959 (Q12959 314-412): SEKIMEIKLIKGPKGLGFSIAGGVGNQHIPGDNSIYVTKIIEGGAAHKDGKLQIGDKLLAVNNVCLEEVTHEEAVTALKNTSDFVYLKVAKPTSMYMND

DLG1_3, Q12959 = molecular target: DLG1_3, Q12959
Chain of DLG1_3, Q12959 (Q12959 457-571): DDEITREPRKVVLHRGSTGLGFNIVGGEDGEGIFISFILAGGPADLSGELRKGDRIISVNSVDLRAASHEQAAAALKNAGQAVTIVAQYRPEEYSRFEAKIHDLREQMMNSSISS

DLG3_1, Q92796 = molecular target: T5, DLG3_1, Q92796
HTRA2, O43464 = molecular target: HTRA2, O43464
Chain of HTRA2, O43464 (O43464 355-458): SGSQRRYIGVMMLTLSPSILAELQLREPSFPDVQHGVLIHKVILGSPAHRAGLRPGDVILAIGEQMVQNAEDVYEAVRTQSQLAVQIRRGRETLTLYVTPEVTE

Inadl_1, Q8NI35 = molecular target: Inadl_1, Q8NI35
Chain of Inadl_1, Q8NI35 (Q8NI35 113-229): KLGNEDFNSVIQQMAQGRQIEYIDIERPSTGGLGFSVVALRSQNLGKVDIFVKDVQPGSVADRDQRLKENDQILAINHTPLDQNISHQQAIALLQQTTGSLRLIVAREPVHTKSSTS

Inadl_9, Q8NI35 = molecular target: Inadl_9, Q8NI35
Chain of Inadl_9, Q8NI35 (Q8NI35 1530-1615): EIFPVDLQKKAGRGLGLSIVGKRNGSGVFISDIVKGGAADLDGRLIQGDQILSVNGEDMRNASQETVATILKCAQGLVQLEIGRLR

LIN7C, Q9NUP9 = molecular target: T6, LIN7C, Q9NUP9
LNX1_3, Q8TBB1 = molecular target: LNX1_3, Q8TBB1
Chain of LNX1_3, Q8TBB1 (Q8TBB1 500-596): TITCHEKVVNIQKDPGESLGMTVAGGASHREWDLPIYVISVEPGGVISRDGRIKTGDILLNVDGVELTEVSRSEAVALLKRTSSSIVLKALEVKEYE

LRRC7, Q96NW7 = molecular target: T7, LRRC7, Q96NW7
MAGI1_1, Q96QZ7 = molecular target: MAGI1_1, Q96QZ7
Chain of MAGI1_1, Q96QZ7 (Q96QZ7 1-106): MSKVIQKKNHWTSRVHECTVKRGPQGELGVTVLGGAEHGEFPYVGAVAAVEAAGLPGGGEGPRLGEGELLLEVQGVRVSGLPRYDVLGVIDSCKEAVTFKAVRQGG

MAGI2_6, Q86UL8 = molecular target: MAGI2_6, Q86UL8
Chain of MAGI2_6, Q86UL8 (Q86UL8 1141-1229): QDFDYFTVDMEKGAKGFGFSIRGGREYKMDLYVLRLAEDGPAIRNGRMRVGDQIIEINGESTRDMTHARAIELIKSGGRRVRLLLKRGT

MAST2, Q6P0Q8 = molecular target: MAST2, Q6P0Q8
Chain of MAST2, Q6P0Q8 (Q6P0Q8 1099-1202): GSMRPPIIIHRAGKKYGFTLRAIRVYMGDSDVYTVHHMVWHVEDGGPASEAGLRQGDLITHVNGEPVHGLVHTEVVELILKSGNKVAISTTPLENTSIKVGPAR

MPDZ_12, O75970 = molecular target: T8, MPDZ_12, O75970
NHERF2_2, Q15599 = molecular target: NHERF2_2, Q15599
Chain of NHERF2_2, Q15599 (Q15599 142-238): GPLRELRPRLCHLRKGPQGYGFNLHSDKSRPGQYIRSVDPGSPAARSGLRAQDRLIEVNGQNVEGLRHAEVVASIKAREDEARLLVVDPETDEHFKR

NHERF3_4, Q5T2W1 = molecular target: T9, NHERF3_4, Q5T2W1
NHERF4_2, Q86UT5 = molecular target: NHERF4_2, Q86UT5
Chain of NHERF4_2, Q86UT5 (Q86UT5 220-308): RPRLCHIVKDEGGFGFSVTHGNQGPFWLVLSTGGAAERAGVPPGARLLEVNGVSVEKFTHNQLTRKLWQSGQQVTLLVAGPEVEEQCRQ

NHERF4_4, Q86UT5 = molecular target: NHERF4_4, Q86UT5
Chain of NHERF4_4, Q86UT5 (Q86UT5 464-550): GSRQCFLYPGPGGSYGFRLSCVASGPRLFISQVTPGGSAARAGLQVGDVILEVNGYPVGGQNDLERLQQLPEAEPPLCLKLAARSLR

PDZRN3_1, Q9UPQ7 = molecular target: T10, PDZRN3_1, Q9UPQ7
PTPN13_1, Q12923 = molecular target: T11, PTPN13_1, Q12923
TIAM2, Q8IVF5 = molecular target: T12, TIAM2, Q8IVF5
TJP1_3, Q07157 = molecular target: TJP1_3, Q07157
Chain of TJP1_3, Q07157 (Q07157 416-512): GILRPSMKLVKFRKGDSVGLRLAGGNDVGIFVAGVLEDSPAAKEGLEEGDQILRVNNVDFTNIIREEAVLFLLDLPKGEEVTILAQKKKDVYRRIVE

Row | pKd (AHNAK1, Q09666) | pKd (APBA2_1, Q99767) | pKd (ARHGEF11, O15085) | pKd (DFNB31_1, Q9P202) | pKd (DFNB31_3, Q9P202) | pKd (DLG1_2, Q12959) | pKd (DLG1_3, Q12959) | pKd (DLG3_1, Q92796) | pKd (HTRA2, O43464) | pKd (Inadl_1, Q8NI35) | pKd (Inadl_9, Q8NI35) | pKd (LIN7C, Q9NUP9) | pKd (LNX1_3, Q8TBB1) | pKd (LRRC7, Q96NW7) | pKd (MAGI1_1, Q96QZ7) | pKd (MAGI2_6, Q86UL8) | pKd (MAST2, Q6P0Q8) | pKd (MPDZ_12, O75970) | pKd (NHERF2_2, Q15599) | pKd (NHERF3_4, Q5T2W1) | Binder | further results
1 | below the threshold | below the threshold | 3.83 | 3.8 | 3.96 | 4.45 | 3.57 | 3.69 | below the threshold | below the threshold | 3.57 | below the threshold | below the threshold | below the threshold | below the threshold | 4.02 | 4.75 | below the threshold | 3.51 | below the threshold | GSSSKEGTSV [RRBP1, Q9P2E9] | pKd (NHERF4_2, Q86UT5): below the threshold; pKd (NHERF4_4, Q86UT5): 3.98; pKd (PDZRN3_1, Q9UPQ7): 4.33; pKd (PTPN13_1, Q12923): below the threshold; pKd (TIAM2, Q8IVF5): below the threshold; pKd (TJP1_3, Q07157): below the threshold
2 | below the threshold | below the threshold | below the threshold | below the threshold | 3.97 | below the threshold | below the threshold | below the threshold | below the threshold | below the threshold | below the threshold | 3.96 | below the threshold | below the threshold | below the threshold | below the threshold | below the threshold | below the threshold | 3.89 | below the threshold | ADRDHASDQL [CTBP1, Q13363] | pKd (NHERF4_2, Q86UT5): below the threshold; pKd (NHERF4_4, Q86UT5): below the threshold; pKd (PDZRN3_1, Q9UPQ7): below the threshold; pKd (PTPN13_1, Q12923): below the threshold; pKd (TIAM2, Q8IVF5): below the threshold; pKd (TJP1_3, Q07157): below the threshold
3 | below the threshold | below the threshold | below the threshold | below the threshold | below the threshold | 3.85 | below the threshold | below the threshold | below the threshold | below the threshold | below the threshold | below the threshold | below the threshold | below the threshold | below the threshold | below the threshold | 3.88 | below the threshold | 3.6 | below the threshold | VGIERETDVL [EZH1, Q92800] | pKd (NHERF4_2, Q86UT5): below the threshold; pKd (NHERF4_4, Q86UT5): below the threshold; pKd (PDZRN3_1, Q9UPQ7): below the threshold; pKd (PTPN13_1, Q12923): below the threshold; pKd (TIAM2, Q8IVF5): 3.49; pKd (TJP1_3, Q07157): below the threshold
